In assay [1] the target is T1, BCL10 (Homo sapiens, UniProt O95999).
T1 construct: Full-length GST-BCL10 (Abnova, catalog H00008915-P01) was immobilized onto a gold sensor chip surface; GST (N); purchased Abnova H00008915-P01
T1 sequence (O95999 1-233): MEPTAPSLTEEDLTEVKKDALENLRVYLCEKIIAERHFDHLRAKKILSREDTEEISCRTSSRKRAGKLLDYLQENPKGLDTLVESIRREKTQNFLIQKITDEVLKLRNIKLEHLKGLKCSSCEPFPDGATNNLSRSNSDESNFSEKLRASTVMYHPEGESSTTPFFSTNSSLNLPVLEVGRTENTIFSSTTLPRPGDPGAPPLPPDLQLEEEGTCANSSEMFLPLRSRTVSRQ
The assay can be described thus: ELISA binding of recombinant MALT1 or GRK2 to immobilized BCL10. As to conditions: protein added to immobilized BCL10. As to the method: ELISA-based protein-protein interaction assay. On a high-binding 96-well ELISA microplate (Greiner Cat# 655061), 100 ng of His-tagged recombinant human full-length BCL10 protein (Novus Cat# NBP1-99064) or in 100 µl PBS was allowed to adhere overnight at 4°C. The plate was blocked with 5% BSA in PBS for 1 hour at room temperature. After washing twice with PBS-T, a mixture of 100 ng of GST-tagged recombinant human full-length MALT1 protein (Novus Biologicals Cat# H00010892-P01) and compound that was preincubated for 1 hour in 100 μl PBS was added to the plate for 1 hour at room temperature. After washing three times with PBS-T, anti-MALT1 antibody (Cell Signaling Technology, Cat# 2494) in 5% BSA in PBS was added at 1:1000 dilution for 1 hour at room temperature. After washing three times with PBS-T, HRP-conjugated secondary antibody in 5% BSA in PBS was added at 1:5000 dilution for 1 hour at room temperature. After washing three times with PBS-T, 100 µl of 3,3’,5,5’-tetramethylbenzidine (TMB) substrate solution (Thermo Scientific, Cat# 34028) was added for up to 15 minutes, and 100 µl of 2 M sulfuric acid was added to stop the reaction. The plate was read at 450 nm using a spectrophotometer (Molecular Devices SpectraMax i3). […]
For orientation: In an ELISA, binding on a coated surface is turned into a signal by an enzyme label.

The target of assay [2] is T1, BCL10. The assay can be described thus: SPR binding of MALT1 protein fragments to immobilized BCL10. As to the method: Surface plasmon resonance (SPR) experiments were performed on a Biacore 2000 system (Cytiva). Full-length GST-BCL10 (Abnova, catalog H00008915-P01) was immobilized onto a gold sensor chip surface, and analyte solution containing MALT1(DD+Ig1-2), MALT1(DD), or MALT1(Ig1-2) purified protein was injected over the surface through a series of flow cells (see Supplemental Methods for details on protein purification). The binding kinetic parameters were obtained using the Langmuir model for global fitting with 1:1 binding ratio where one ligand molecule interacts with one analyte molecule. The equilibrium dissociation constant (KD) of M1i-124 to full-length GST-tagged MALT1 (Novus, catalog H00010892-P01) protein was determined by Creative Biolabs using Biacore T200. Full-length MALT1 protein was immobilized onto CM5 sensor chip surface, and M1i-124 was injected at concentrations of 0, 12.5, 25, 50, 100, and 200 μM. The steady-state affinity model was used to determine the KD.
Supplemental Materials and Methods
Cell lines and reagents. The DLBCL cell lines OCI-Ly1, OCI-Ly3, and OCI-Ly7 were provided by Mark D. Minden (University Health Network, Toronto, Ontario, Canada) , TMD8 cell line was provided by Louis Staudt (National Cancer Institute, NIH, Bethesda Maryland), and the BJAB cell line was provided by Mathijs Baens (Katholieke Universiteit Leuven, Leuven, Belgium). […]
For orientation: Surface plasmon resonance follows binding to a sensor surface in real time, without labels.

The next assay concerns the target T2, Full-length GST-BCL10 (UniProt O95999 1-233).
T2 construct: BCL10, full length; also called immobilized BCL10; source: bought: Abnova, catalog H00008915-P01
T2 sequence (looked up): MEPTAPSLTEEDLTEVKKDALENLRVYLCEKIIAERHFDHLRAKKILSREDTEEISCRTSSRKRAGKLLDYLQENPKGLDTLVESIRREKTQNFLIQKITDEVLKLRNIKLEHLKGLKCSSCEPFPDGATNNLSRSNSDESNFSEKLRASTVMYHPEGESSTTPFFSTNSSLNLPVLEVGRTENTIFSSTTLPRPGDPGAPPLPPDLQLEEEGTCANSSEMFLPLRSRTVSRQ
The assay can be described thus: SPR; Biacore 2000; full-length GST-BCL10 immobilised on a gold sensor chip surface, purified MALT1 fragments injected as analyte; Langmuir model, global fitting, 1:1 binding. As to conditions: both partners purified.

Where “and” joins values, the source holds several entries; their conditions need not be identical. Equal values may be shown once.

The source of these data is paper PMC11996864, “A small-molecule inhibitor of BCL10-MALT1 interaction abrogates progression of diffuse large B cell lymphoma” (The Journal of Clinical Investigation, 2025).

As a reminder, the Kd is the equilibrium constant for the complex coming apart. High values mean a looser complex, low ones a tighter complex.

Regarding BCL10 + MALT1, in the assay with BCL10 [1], the OD450 was 0.851 and 0.825. For BCL10 + GRK2, the OD450 in the assay with BCL10 [1] was 0.226 and 0.156.

B1: MALT1(DD+Ig1-2): Recombinant human MALT1 fragment, death domain plus Ig1-2 domains (aa 1-326) (protein, UniProt Q9UDY8 1-326, looked up, fragment)
chain: MSLLGDPLQALPPSAAPTGPLLAPPAGATLNRLREPLLRRLSELLDQAPEGRGWRRLAELAGSRGRLRLSCLDLEQCSLKVLEPEGSPSLCLLKLMGEKGCTVTELSDFLQAMEHTEVLQLLSPPGIKITVNPESKAVLAGQFVKLCCRATGHPFVQYQWFKMNKEIPNGNTSELIFNAVHVKDAGFYVCRVNNNFTFEFSQWSQLDVCDIPESFQRSVDGVSESKLQICVEPTSQKLMPGSTLVLQCVAVGSPIPHYQWFKNELPLTHETKKLYMVPYVDLEHQGTYWCHVYNDRDSQDSKKVEIIIGRTDEAVECTEDELNNLG
For the molecule B1, the affinity with BCL10 [2] (MALT1 fragment over immobilized BCL10), expressed as Kd, was 25 nM.

B2: MALT1(Ig1-2) purified protein (domain or fragment)
chain: KITVNPESKAVLAGQFVKLCCRATGHPFVQYQWFKMNKEIPNGNTSELIFNAVHVKDAGFYVCRVNNNFTFEFSQWSQLDVCDIPESFQRSVDGVSESKLQICVEPTSQKLMPGSTLVLQCVAVGSPIPHYQWFKNELPLTHETKKLYMVPYVDLEHQGTYWCHVYNDRDSQDSKKVEIII
notes: MALT1, tandem Ig-like domains Ig1 and Ig2; PDB 3K0W is the published MALT1(Ig1-2) crystal structure, whose limits may differ from this construct; Host, tags and limits are in Supplemental Methods; source: purified protein (purification in Supplemental Methods)
B2 came in with a Kd with Full-length GST-BCL10 of 29 nM. In other words, the double-digit nanomolar range.

B3: MALT1(DD): Recombinant human MALT1 fragment, death domain only (aa 29-124) (protein, UniProt Q9UDY8 29-124, looked up, fragment)
chain: TLNRLREPLLRRLSELLDQAPEGRGWRRLAELAGSRGRLRLSCLDLEQCSLKVLEPEGSPSLCLLKLMGEKGCTVTELSDFLQAMEHTEVLQLLSP
Regarding B3, the “binding to BCL10” value in the assay with BCL10 [2] (result in words) is recorded as “no detectable binding”.

B4: MALT1(DD+Ig1-2) purified protein (domain or fragment)
chain: MSLLGDPLQALPPSAAPTGPLLAPPAGATLNRLREPLLRRLSELLDQAPEGRGWRRLAELAGSRGRLRLSCLDLEQCSLKVLEPEGSPSLCLLKLMGEKGCTVTELSDFLQAMEHTEVLQLLSPPGIKITVNPESKAVLAGQFVKLCCRATGHPFVQYQWFKMNKEIPNGNTSELIFNAVHVKDAGFYVCRVNNNFTFEFSQWSQLDVCDIPESFQRSVDGVSESKLQICVEPTSQKLMPGSTLVLQCVAVGSPIPHYQWFKNELPLTHETKKLYMVPYVDLEHQGTYWCHVYNDRDSQDSKKVEIIIDELNNLGHPDNKEQTTDQ
modifications: Printed as aa 1-326, MBP tag removed by TEV. Taken in isoform B numbering (lacks 309-319): the paper uses isoform B (C-terminus at 813), and the 3K0W construct, 199 residues after its tag and ending …
For the molecule B4, the affinity with Full-length GST-BCL10, expressed as Kd, was 25 nM.
